The Km is the substrate concentration at which the rate is half of its maximum. For orientation: Vmax means the top rate of the reaction or transport when substrate is in excess. In general, kcat refers to the number of substrate molecules converted per active site and unit of time at saturation. What is called kcat/Km is the turnover number divided by the Michaelis constant.

Two proteins from paper PMC8125816, “Relative Importance of Soluble and Microsomal Epoxide Hydrolases for the Hydrolysis of Epoxy-Fatty Acids in Human Tissues” (International Journal of Molecular Sciences, 2021) can be followed below.

What all share (experiment): LC/MS-MS of diol formed
Type in all cases: biochemical, Homo sapiens

Substrate in series [1]: CC/C=C\C/C=C\CC1OC1C/C=C\C/C=C\C/C=C\CCC(=O)O
The settings on record: sodium phosphate 0.1 M pH 7.4, 0.1 mg/mL BSA, 37 °C, crude membrane extract. An excerpt:
(§1) LC/MS-MS of diol formed on EH3

Substrate in series [2]: CCCCC/C=C\C/C=C\CC1OC1C/C=C\CCCC(=O)O
Particulars: sodium phosphate 0.1 M pH 7.4, 0.1 mg/mL BSA, 37 °C, crude membrane extract.
Source text: as §1

Substrate in series [3]: CCCCC/C=C\C[C@@H]1O[C@H]1/C=C/C(O)C/C=C\CCCC(=O)O
Particulars: sodium phosphate 0.1 M pH 7.4, 0.1 mg/mL BSA, 37 °C, crude membrane extract.
Source text: as §1

Substrate in series [4]: CCCCCC1OC1C/C=C\C/C=C\C/C=C\CCCC(=O)O
The settings on record: sodium phosphate 0.1 M pH 7.4, 0.1 mg/mL BSA, 37 °C, crude membrane extract.
Source text: as §1

Substrate in series [5]: CC/C=C\C/C=C\CC1OC1C/C=C\C/C=C\C/C=C\CCC(=O)O
The settings on record: Tris/HCl 0.1 M pH 9.0, 0.1 mg/mL BSA, 37 °C. An excerpt:
(§2) LC/MS-MS of diol formed on mEH

Substrate in series [6]: CCCCC/C=C\C/C=C\CC1OC1C/C=C\CCCC(=O)O
The settings on record: Tris/HCl 0.1 M pH 9.0, 0.1 mg/mL BSA, 37 °C.
Source text: as §2

Substrate in series [7]: CCCCC/C=C\C[C@@H]1O[C@H]1/C=C/C(O)C/C=C\CCCC(=O)O
The settings on record: Tris/HCl 0.1 M pH 9.0, 0.1 mg/mL BSA, 37 °C.
Source text: as §2

Substrate in series [8]: CCCCCC1OC1C/C=C\C/C=C\C/C=C\CCCC(=O)O
The settings on record: Tris/HCl 0.1 M pH 9.0, 0.1 mg/mL BSA, 37 °C.
Source text: as §2

B1: EH3 (Homo sapiens) (protein)
chain: MPELVVTALLAPSRLSLKLLRAFMWSLVFSVALVAAAVYGCIALTHVLCRPRRGCCGRRRSASPACLSDPSLGEHGFLNLKSSGLRLHYVSAGRGNGPLMLFLHGFPENWFSWRYQLREFQSRFHVVAVDLRGYGPSDAPRDVDCYTIDLLLVDIKDVILGLGYSKCILVAHDWGALLAWHFSIYYPSLVERMVVVSGAPMSVYQDYSLHHISQFFRSHYMFLFQLPWLPEKLLSMSDFQILKTTLTHRKTGIPCLTPSELEAFLYNFSQPGGLTGPLNYYRNLFRNFPLEPQELTTPTLLLWGEKDTYLELGLVEAIGSRFVPGRLEAHILPGIGHWIPQSNPQEMHQYMWAFLQDLLD
For the protein B1, in “LC/MS-MS of diol formed [1]”, the Km is 4.3 ± 1.2 µM, the Vmax was found to be 0.121 µmol/min/mg, the kcat came out at 0.08 ± 0.01 s⁻¹ and the kcat/Km is 19000 ± 3000 M⁻¹ s⁻¹. For the same protein, in the series “LC/MS-MS of diol formed [2]”, the Michaelis constant (Km) worked out at 10 ± 0.5 µM, the Vmax was found to be 0.044 µmol/min/mg, the kcat turned out to be 0.03 ± 0.001 s⁻¹ and the catalytic efficiency (kcat/Km) was 3000 ± 200 M⁻¹ s⁻¹. Besides, in the series “LC/MS-MS of diol formed [3]”, the Km is 14 ± 1 µM, the Vmax worked out at 0.017 µmol/min/mg, the kcat is 0.014 ± 0.001 s⁻¹ and the kcat/Km was 1010 ± 30 M⁻¹ s⁻¹. Moreover, in the series “LC/MS-MS of diol formed [4]”, the Km was determined as 76 ± 16 µM, the Vmax stood at 0.027 µmol/min/mg, the kcat was 0.018 ± 0.003 s⁻¹ and the kcat/Km worked out at 240 ± 10 M⁻¹ s⁻¹.

B2: mEH (Homo sapiens) (protein)
chain: MWLEILLTSVLGFAIYWFISRDKEETLPLEDGWWGPGTRSAAREDDSIRPFKVETSDEEIHDLHQRIDKFRFTPPLEDSCFHYGFNSNYLKKVISYWRNEFDWKKQVEILNRYPHFKTKIEGLDIHFIHVKPPQLPAGHTPKPLLMVHGWPGSFYEFYKIIPLLTDPKNHGLSDEHVFEVICPSIPGYGFSEASSKKGFNSVATARIFYKLMLRLGFQEFYIQGGDWGSLICTNMAQLVPSHVKGLHLNMALVLSNFSTLTLLLGQRFGRFLGLTERDVELLYPVKEKVFYSLMRESGYMHIQCTKPDTVGSALNDSPVGLAAYILEKFSTWTNTEFRYLEDGGLERKFSLDDLLTNVMLYWTTGTIISSQRFYKENLGQGWMTQKHERMKVYVPTGFSAFPFELLHTPEKWVRFKYPKLISYSYMVRGGHFAAFEEPELLAQDIRKFLSVLERQ
Consider B2, for which, in “LC/MS-MS of diol formed [5]”, the Michaelis-Menten constant (Km) was 2.9 ± 0.4 µM, the Vmax is 0.445 µmol/min/mg, the kcat came to 0.37 ± 0.01 s⁻¹ and the specificity constant (kcat/Km) was found to be 130000 ± 20000 M⁻¹ s⁻¹. In “LC/MS-MS of diol formed [6]”, the Km worked out at 2.5 ± 0.6 µM, the Vmax turned out to be 0.038 µmol/min/mg, the kcat amounted to 0.032 ± 0.002 s⁻¹ and the kcat/Km turned out to be 13000 ± 1000 M⁻¹ s⁻¹. In “LC/MS-MS of diol formed [7]”, the Km came to 51 ± 14 µM, the Vmax amounted to 0.023 µmol/min/mg, the kcat turned out to be 0.019 ± 0.003 s⁻¹ and the kcat/Km is 370 ± 60 M⁻¹ s⁻¹. Moreover, in the series “LC/MS-MS of diol formed [8]”, the Km came to 80 ± 6 µM, the Vmax amounted to 0.053 µmol/min/mg, the kcat came out at 0.044 ± 0.003 s⁻¹ and the kcat/Km worked out at 550 ± 10 M⁻¹ s⁻¹.
